In patent US20030148264A1, “Phage displayed PDZ domain ligands” (GENENTECH, INC., priority 2001, published 2003):

Key:
[1] = molecular target: T1, PDZ 2 of MAGI-3 (Homo sapiens, UniProt Q5TCQ9); assay: GST-PDZ co-precipitation of proteins from transfected HEK 293 cell extracts; type: binding; details: extracts from transfected HEK 293 cells; FIG. 6
T1 construct: made in house; host or cells: E. coli
T1 sequence (Q5TCQ9 584-707 isoform Q5TCQ9-2): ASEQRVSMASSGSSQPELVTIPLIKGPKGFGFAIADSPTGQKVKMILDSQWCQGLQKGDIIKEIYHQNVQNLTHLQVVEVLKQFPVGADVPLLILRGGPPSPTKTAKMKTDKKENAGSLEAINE
Method: (§1) HEK 293 (293) cells grown in high glucose Dulbeco's Modified Eagle Medium (DMEM), 10% fetal calf serum, 1× non-essential amino acid supplement, 1×L-glutamine supplement, 10 mM HEPES (pH 7.4) and penicillin/streptomycin (all from Life Technologies) to ˜80% confluence were transfected with 2 μg DNA/35 mm diameter well (for example, DNAs encoding the sequences described in EXAMPLE 5.0) using Fugene reagent (Roche Biochemical). 24 hours post-transfection, cells were washed once with PBS and then scraped into 1 ml/well of 20 mM Tris (pH 7.5), 1% Triton X-100, 200 mM NaCl, 1 mM dithiothreitol, and protease inhibitor cocktail with EDTA (Roche Biochemical, catalog #1836145) and homogenized gently with three to five strokes in a dounce (Wheaton) using a loose glass pestle. Extracts were centrifuged at 12,000 rpm in a tabletop centrifuge at 4° C. for 10 minutes; the supernatant was combined with an equal volume of homogenization buffer without NaCl to achieve a final salt concentration of 100 mM and frozen at −70° C. until use. […] Binding of 293 cell-expressed proteins was detected by immunoblot analysis using antibodies against GFP (Clontech) and Her 2 (Santa Cruz Biotechnology).
(§2) Amino acids 1217-1371 of ERBIN and 584-707 corresponding to PDZ 2 of MAGI-3 (Sidhu et al., 2000); were expressed in E. coli as GST fusions. […] Equal volumes of extract and depleted extract (sup.) were analyzed.

[2] = molecular target: T2, ERBIN PDZ domain (Homo sapiens, UniProt Q96RT1); assay: as above; type: binding; set-up: made in house; host or cells: E. coli; details: extracts from transfected HEK 293 cells; FIG. 6
Method: as §1, §2
Target sequence in this assay (Q96RT1 1258-1412): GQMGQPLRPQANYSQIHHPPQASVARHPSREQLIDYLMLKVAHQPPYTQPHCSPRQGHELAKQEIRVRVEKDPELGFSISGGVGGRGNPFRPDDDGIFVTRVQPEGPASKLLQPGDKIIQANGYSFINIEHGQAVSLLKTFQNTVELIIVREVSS

[3] = molecular target: T2, ERBIN PDZ domain; assay: Co-localization of ERBIN PDZ and δ-catenin in transfected HEK 293 cells; type: cell-based; set-up: expressed in transfected cells; host or cells: HEK 293; details: co-transfected HEK 293 cells; FIG. 7
Method: HEK 293 cells were grown to 70% confluence on collagen IV coated coverslips and then transfected with 1.4 μg of GST-ERBIN PDZ in pcDNA 3.1/V5/His and 1.1 μg of the indicated EGFP construct. 24 to 48 hours post-transfection, the cells were washed in PBS, fixed for 30 minutes in 2.5% formaldehyde, permeabilized with 0.25% Triton X-100 in PBS, and blocked with 5% donkey serum in PBS. The ERBIN PDZ domain was visualized by staining with monoclonal anti-V5 antibody (Invitrogen) and Cy3-conjugated secondary antibodies (Jackson Immunolabs) whereas GFP fusions were visualized directly. Images were taken on a standard fluorescence microscope using a 40× objective and digital CCD camera and SPOT imaging software (Diagnostic Instruments, Inc.; Sterling Heights, Mich.).
The ERBIN PDZ domain was co-transfected into HEK 293 E cells with EGFP, human δ-catenin or human δ-catenin missing the six C-terminal amino acids (FIG. 7).
Target sequence in this assay (Q96RT1 1314-1412): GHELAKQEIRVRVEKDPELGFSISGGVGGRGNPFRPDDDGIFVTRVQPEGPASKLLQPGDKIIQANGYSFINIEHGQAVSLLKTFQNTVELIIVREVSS

binding to / precipitation by GST-MAGI-3 PDZ 2 [1]: not to PDZ 2 of MAGI-3 | binding to / precipitation by GST-ERBIN PDZ [2]: binds strongly
B1: δ-catenin: member of the Armadillo family, expressed as EGFP fusion in HEK 293 cells; candidate ERBIN PDZ ligand (protein)
chain: MFARKPPGAAPLGAMPVPDQPSSASEKTSSLSPGLNTSNGDGSETETTSAILASVKEQELQFERLTRELEAERQIVASQLERCKLGSETGSMSSMSSAEEQFQWQSQDGQKDIEDELTTGLELVDSCIRSLQESGILDPQDYSTGERPSLLSQSALQLNSKPEGSFQYPASYHSNQTLALGETTPSQLPARGTQARATGQSFSQGTTSRAGHLAGPEPAPPPPPPPREPFAPSLGSAFHLPDAPPAAAAAALYYSSSTLPAPPRGGSPLAAPQGGSPTKLQRGGSAPEGATYAAPRGSSPKQSPSRLAKSYSTSSPINIVVSSAGLSPIRVTSPPTVQSTISSSPIHQLSSTIGTYATLSPTKRLVHASEQYSKHSQELYATATLQRPGSLAAGSRASYSSQHGHLGPELRALQSPEHHIDPIYEDRVYQKPPMRSLSQSQGDPLPPAHTGTYRTSTAPSSPGVDSVPLQRTGSQHGPQNAAAATFQRASYAAGPASNYADPYRQLQYCPSVESPYSKSGPALPPEGTLARSPSIDSIQKDPREFGWRDPELPEVIQMLQHQFPSVQSNAAAYLQHLCFGDNKIKAEIRRQGGIQLLVDLLDHRMTEVHRSACGALRNLVYGKANDDNKIALKNCGGIPALVRLLRKTTDLEIRELVTGVLWNLSSCDALKMPIIQDALAVLTNAVIIPHSGWENSPLQDDRKIQLHSSQVLRNATGCLRNVSSAGEEARRRMRECDGLTDALLYVIQSALGSSEIDSKTVENCVCILRNLSYRLAAETSQGQHMGTDELDGLLCGEANGKDAESSGCWGKKKKKKKSQDQWDGVGPLPDCAEPPKGIQMLWHPSIVKPYLTLLSECSNPDTLEGAAGALQNLAAGSWKWSVYIRAAVRKEKGLPILVELLRIDNDRVVCAVATALRNMALDVRNKELIGKYAMRDLVHRLPGGNNSNNTASKAMSDDTVTAVCCTLHEVITKNMENAKALRDAGGIEKLVGISKSKGDKHSPKVVKAASQVLNSMWQYRDLRSLYKKDGWSQYHFVASSSTIERDRQRPYSSSRTPSISPVRVSPNNRSASAPASPREMISLKERKTDYECTGSNATYHGAKGEHTSRKDAMTAQNTGISTLYRNSYGAPAEDIKHNQVSAQPVPQEPSRKDYETYQPFQNSTRNYDESFFEDQVHHRPPASEYTMHLGLKSTGNYVDFYSAARPYSELNYETSHYPASPDSWV
modifications: left off: large carriers
notes: member of the Armadillo family, expressed as EGFP fusion in HEK 293 cells; candidate ERBIN PDZ ligand
co-localization with / recruitment of ERBIN PDZ domain [3]: complete recruitment of ERBIN PDZ to the cell junction
